{"source": "patent US10480012B2", "about": "“CYP-P22 biocatalytic nanoparticles with cytochrome P450 activity for prodrug activation” (UNIVERSIDAD NACIONAL AUTÓNOMA DE MÉXICO, priority 2015, dated 2019)", "molecules": {"B1": {"name": "CYP-P22: cytochrome P450 (CYPBM3 “21B3” fused to scaffold protein) encapsulated in a bacteriophage P22 nanocapsid (protein)", "chain": "MAIKEMPQPKTFGELKNLPLLNTDKPVQALMKIADELGEIFKFEAPGRVTRYLSSQRLVKEACDESRFDKNLSQALKFVRDFAGDGLATSWTHEKNWKKARNILLPSLSQQAMKGYHAMMVDIAVQLVQKWERLNSDEKIEVPEDVTRLTLDTIGLCGFNYRFNSFYRDQPHPFITSMVRALDEAMNKLQRANPDDPAYDENKRQFQEDIKVMDLVDKIIADRKASGEQSDDLLTHMLHGKDPETGEPLDDENIRYQIITFLIAGHETTSGLLTFALYFLVKNPHVLQKAAEEAARVLVDPVPSYKQVKQLKYVGMVLNEALRLWPTAPAFSLYAKEDTVLGGEYPLEKGDELMVLIPQLHRDKTIWGDDVEEFRPERFENPSAIPQHAFKPFGNGQRACIGQQFALHEATLVLGMMLKHFDFEDHTNYELDIEETLTLKPEGFVIKAKSKKIPLGGIPSPSTGSLVPRGSCRSNAVAEQGRKTQEFTQQSAQYVEAARKHYDAAEKLNIPDYQEKEDAFMQLVPPAVGADIMRLFPEKSAALMYHLGANPEKARQLLAMDGQSALIELTRLSERLTLKPRGKQISSAPHADQPITGDVSAANKDAIRKQMDAAASKGDVETYRKLKAKLKGIR"}}, "key": {"[1]": {"assay": "Kinetic parameters of encapsulated and free CYP with 2,6-DMP and H2O2", "format": "biochemical", "description": "To calculate the kinetic parameters using 2,6-DMP as a substrate, two curves were constructed with two different concentrations of hydrogen peroxide, 5 mM and 60 mM. Reactions were carried out in 0.1 mL (50 mM Tris-HCl pH 8) with the following phenol concentrations: 10, 25, 50, 125, 250 and 500 μM. The reaction was started by adding 5 mM or 60 mM of H2O2. The amount of encapsulated enzyme used was 42.9 picomoles (assays with 5 mM H2O2) and 21.45 picomoles (assays with 60 mM H2O2); the amount of protein was determined by a concentration assay, specific for CYP450, for binding to CO. The catalytic activity was spectrophotometrically monitored at 468 nm (ε468=14800 M^−1 cm^−1 using an Agilent 8453 UV-vis spectrophotometer. Catalytic constants were obtained through the GraphPad Prism 6 program.\nH) Catalytic capacity of P22 capsids with CYP inside is evaluated. Reactions were carried out in 0.1 mL (50 mM Tris-HCl pH 8) with the following phenol concentrations: 10, 25, 50, 125, 250 and 500 μM. The reaction was started by adding 5 mM or 60 mM of H2O2. The amount of encapsulated enzyme used was 42.9 picomoles, the amount of protein was determined by a CO binding assay specific for CYP450. Catalytic activity was spectrophotometrically monitored at 468 nm (ε468=14800 M^−1 cm^−1). […] The encapsulated enzyme follows a Michaelis-Menten kinetics as does free CYP."}, "[2]": {"system": "trypsin", "assay": "Stability to protease degradation (trypsin), residual activity", "format": "physicochemical", "settings": "10 U trypsin per mg protein, room temperature", "description": "For proteolysis assays, the encapsulated and free enzyme was treated with 10 U of trypsin per mg protein, incubating for 1 and 20 h at room temperature. At the end of each time, an aliquot was taken out of the sample and the residual activity was measured in 100 mM Tris-HCl buffer pH 8 using 500 μM 2,6-DMP as substrate and initiating the reaction with 5 mM H2O2."}, "[3]": {"assay": "Temperature stability, activity retention at 40 and 50° C.", "format": "physicochemical", "description": "Stability of encapsulated CYP and the free enzyme was determined by measuring the percentage of activity retention at different times when the protein was incubated at 40 and 50° C. in a water bath. Incubation times for each of the temperatures were 0, 5, 10, 15 and 30 min. At the end of each time, an aliquot was removed from the sample, centrifuged for 1 min at 16,000×g and left to rest for 10 min to temper the sample before measuring activity. Catalytic activity was measured in a final volume of 0.1 mL in 100 mM Tris-HCl buffer pH 8 using 500 μM 2,6-DMP as substrate and initiating the reaction with 5 mM H2O2."}, "[4]": {"assay": "pH activity profile", "format": "biochemical", "settings": "500 μM 2,6-DMP, 5 mM H2O2", "description": "To determine the activity profile at different pH values for the encapsulated and free enzyme, catalytic activity was measured at the following pHs: 5 (100 mM sodium acetate), 6 (100 mM potassium phosphate}, 7, 8 and 9 (100 mM Tris-HCl), 10 (100 mM borates). Catalytic activity was measured in a final volume of 0.1 mL using as substrate 500 μM 2,6-DMP and initiating the reaction with 5 mM H2O2."}, "[5]": {"system": "human MCF7 breast cancer cells", "assay": "CYP activity in tumor cells treated with nanoparticles (BFC fluorescence assay)", "format": "cell-based", "settings": "100 μM BFC, fluorescence images", "description": "I) The presence of biocatalytic nanoparticles (loaded nanoparticles) with CYP activity is evaluated in transformation of 7-benzyloxy-4-trifluorometyl-coumarin (BFC) monitored by fluorescence according to the method of Donato et al.. The fluorescence assay for determining CYP activity is performed with a direct incubation of cultured tumor cells in a 12-well plate in the presence of BFC 100 μM. […] After 60 min incubation at 37° C. the incubation medium is removed and the conjugated products of CYP transformation will be hydrolyzed with a mixture of 3-giucoronidase/arylsulfatase for 2 hours at 37° C. Finally, samples are diluted with the corresponding solution and product fluorescence (7-hydroxy-4-trifluoromethylcoumarin, HFC) is quantified in a spectrofluorimeter with 410 nm excitation and 510 nm emission.\nJ) Affinity evaluation of functionalized loaded nanoparticles in tumor cells in vitro is carried out in human MCF7 breast cancer cells that are maintained in DMEM medium (Dulbecco's Modified Eagle's Medium) supplemented with 10% fetal bovine serum. […] The presence of biocatalytic nanoparticles (CYP-P22) with CYP activity is evaluated in the transformation of 7-benzyloxy-4-trifluoromethyl-coumarin (BFC) monitored by fluorescence according to the method of Donato et al.. […]"}}}
{"molecule": "B1", "values": [{"measurement": "catalytic activity using 2,6-DMP and H2O2 as substrates", "setting": "[1]", "result": "catalytically active"}, {"measurement": "kcat app", "setting": "[1]; substrate 2,6-DMP, 5 mM H2O2, 50 mM Tris-HCl pH 8", "result": "127.2 (±2.3) min^−1"}, {"measurement": "activity retained after incubation with trypsin", "setting": "[2]; 1 hour", "result": 96, "unit": "%"}, {"measurement": "activity retained after incubation with trypsin", "setting": "[2]; 20 hours", "result": 38, "unit": "%"}, {"measurement": "stability compared with free enzyme", "setting": "[3]; 40° C.", "result": "practically the same"}, {"measurement": "inactivation compared with free CYP", "setting": "[3]; 50° C.", "result": "even faster than that found for free CYP"}, {"measurement": "pH of optimum activity", "setting": "[4]", "result": "pH 8 and 9"}, {"measurement": "cytochrome P450 activity in treated tumor cells versus endogenous activity in untreated cells", "setting": "[5]", "result": "much greater"}]}
